± gives the uncertainty stated by the source.
Experiment: amyloid nucleation score (Sup35N fusion, yeast selection) (log enrichment); library NNK1; higher = more nucleation; inactive = no reads after selection
Summary of the method: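 DiMSum was used to calculate nucleation scores as log enrichment of output over input reads, centred on the mode score of non-aggregating sequences. Sequences with fewer than 100 input reads were not scored. Input and output came from Illumina sequencing of plasmid inserts in psi-negative yeast expressing peptides of 20 random codons fused to Sup35N, induced 24 hours with 100 μM copper sulfate and then grown 7 days at 30°C on medium lacking adenine and uracil.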

Which amyloid nucleation score does the source give for AYTCDV here?
The amyloid nucleation score was 0.03 ± 0.29.

With AYVASFTSIRCRAHHAPLSK as the substance, how does the amyloid nucleation score read?
The amyloid nucleation score was -0.366 ± 0.3.

Which amyloid nucleation score does the source give for CAACSSQLYCEWFMNALLGM here?
The amyloid nucleation score was -0.513 ± 0.44.

Which amyloid nucleation score does the source give for CAIFFTASLCVCRLSAACEQ here?
The amyloid nucleation score was 1.75 ± 0.43.

Which amyloid nucleation score does the source give for CAVLLGSIVHMLFAYE here?
The amyloid nucleation score was 0.132 ± 0.61.

With CAVQQYRNRRGNM as the substance, how does the amyloid nucleation score read?
Its amyloid nucleation score is 0.152 ± 0.65.

For CCAISMFFELHNLHVTVMGS, which amyloid nucleation score is on record?
The amyloid nucleation score was 5.54 ± 0.057.

For CCLIHS, which amyloid nucleation score is on record?
Its amyloid nucleation score is 1.38 ± 0.5.

Which amyloid nucleation score does the source give for CCLLDWSLDNGYNRQLRKET here?
Its amyloid nucleation score is 0.219 ± 0.32.

For CCLTWAPTRDPFCLVTGVCR, which amyloid nucleation score is on record?
The amyloid nucleation score was 0.193 ± 1.1.

Which amyloid nucleation score does the source give for CCQYSWSNVMSVRKLSAWLH here?
The amyloid nucleation score was 0.04 ± 0.34.

For CCVNDFPTISPLSPLKRFDR, which amyloid nucleation score is on record?
Its amyloid nucleation score is -0.302 ± 0.54.

Which amyloid nucleation score does the source give for CDRFWMELG here?
Its amyloid nucleation score is -0.267 ± 0.4.

With CDSFVSFMPNFNFFR as the substance, how does the amyloid nucleation score read?
Its amyloid nucleation score is 5.03 ± 0.056.

For CDSYELSQTAQRNNSTLRQS, which amyloid nucleation score is on record?
The amyloid nucleation score was -0.359 ± 1.9.

Which amyloid nucleation score does the source give for CDVLELFKNTVGSFGGIVVS here?
The amyloid nucleation score was 0.204 ± 0.79.

With CDWNLSNGGYGDHARCSGSA as the substance, how does the amyloid nucleation score read?
The amyloid nucleation score was 5.13 ± 0.069.

Which amyloid nucleation score does the source give for CDYAVGHNVDFYYLTSNPSG here?
The amyloid nucleation score was -0.301 ± 0.53.

For CDYVKRLDNLLGYPLWWGRW, which amyloid nucleation score is on record?
Its amyloid nucleation score is 0.22 ± 0.34.

For CEGCDMGWLRSTNRQLMAYL, which amyloid nucleation score is on record?
Its amyloid nucleation score is “inactive”.

Which amyloid nucleation score does the source give for CELGTIDHSEKMLMVNWCAG here?
The amyloid nucleation score was 0.967 ± 0.34.

For CESCAACMRHYRWLGFQSYI, which amyloid nucleation score is on record?
Its amyloid nucleation score is -1.5 ± 2.4.

Which amyloid nucleation score does the source give for CFGCF here?
Its amyloid nucleation score is 2.23 ± 0.17.

Which amyloid nucleation score does the source give for CFGKSSVWHRYRFYIGNRAI here?
The amyloid nucleation score was -0.613 ± 0.75.

For CFIDQYVVTNCSLLTYFM, which amyloid nucleation score is on record?
Its amyloid nucleation score is 0.145 ± 0.88.

Which amyloid nucleation score does the source give for CFIFFPSKIHPLICTKTRAK here?
The amyloid nucleation score was 0.446 ± 0.34.

Which amyloid nucleation score does the source give for CFRELPYSLYNC here?
The amyloid nucleation score was -0.666 ± 0.42.

Which amyloid nucleation score does the source give for CFSLWY here?
Its amyloid nucleation score is 0.089 ± 0.29.

With CGIVFCSSFMDIFGPFDQTH as the substance, how does the amyloid nucleation score read?
The amyloid nucleation score was 8.373 ± 0.056.

For CGKESRVRVKYCVFGIKKWQ, which amyloid nucleation score is on record?
Its amyloid nucleation score is -0.518 ± 0.53.

For CGLLWSCSKLH, which amyloid nucleation score is on record?
Its amyloid nucleation score is 1.56 ± 0.42.

With CGSRLGEMRAVTGPHLTPMR as the substance, how does the amyloid nucleation score read?
Its amyloid nucleation score is -0.233 ± 1.1.

With CGTIKLSPFWWSVEDHACWM as the substance, how does the amyloid nucleation score read?
The amyloid nucleation score was 0.828 ± 0.57.

For CHFSYSI, which amyloid nucleation score is on record?
The amyloid nucleation score was 0.558 ± 1.1.

Which amyloid nucleation score does the source give for CHGCIGTNSEGLCTLYEDYT here?
The amyloid nucleation score was -0.594 ± 0.26.

With CHIWPDVLNVCAILGDLRKR as the substance, how does the amyloid nucleation score read?
Its amyloid nucleation score is 1.18 ± 0.16.

Which amyloid nucleation score does the source give for CHWLNVYSCFSYVVTYDWSN here?
The amyloid nucleation score was 6.044 ± 0.056.

Which amyloid nucleation score does the source give for CHYLVLD here?
The amyloid nucleation score was -0.186 ± 0.74.

For CHYVKPVFTICQVPTFIESI, which amyloid nucleation score is on record?
Its amyloid nucleation score is 1.43 ± 0.51.

With CISIACSAD as the substance, how does the amyloid nucleation score read?
The amyloid nucleation score was 0.342 ± 0.73.

With CIYWALGRAMRLPSGTGARG as the substance, how does the amyloid nucleation score read?
Its amyloid nucleation score is 0.099 ± 0.95.

With CKCWFM as the substance, how does the amyloid nucleation score read?
The amyloid nucleation score was 0.307 ± 0.52.

Which amyloid nucleation score does the source give for CKFIFRKIVVGFCFDQQ here?
Its amyloid nucleation score is 3.67 ± 0.1.

For CKRNQTTVSVVGWFI, which amyloid nucleation score is on record?
Its amyloid nucleation score is -0.227 ± 1.2.

With CKVDRFIRCGVGYLSG as the substance, how does the amyloid nucleation score read?
Its amyloid nucleation score is 0.039 ± 0.28.

Which amyloid nucleation score does the source give for CLIESIWKLVVSNGSKYISY here?
Its amyloid nucleation score is -0.181 ± 0.18.

For CLSELGFAVPTSWTICILCT, which amyloid nucleation score is on record?
The amyloid nucleation score was 0.656 ± 0.59.

For CLTGGYPNRKLNLTMMWCHW, which amyloid nucleation score is on record?
The amyloid nucleation score was “inactive”.

For CLVPAQGCYYGYLLTLMVER, which amyloid nucleation score is on record?
The amyloid nucleation score was -0.264 ± 0.52.

For CLVVYHSRKAW, which amyloid nucleation score is on record?
Its amyloid nucleation score is 2.64 ± 0.16.

For CLYARLSFASGYCGLAMRCV, which amyloid nucleation score is on record?
The amyloid nucleation score was 0.477 ± 0.93.

For CMAFVFKTCFVFRCNVGKCA, which amyloid nucleation score is on record?
Its amyloid nucleation score is 0.527 ± 0.28.

Which amyloid nucleation score does the source give for CMPCSDFGSLWVAMDMNCFR here?
The amyloid nucleation score was 4.1 ± 0.085.

Which amyloid nucleation score does the source give for CMSSAALSRLHM here?
Its amyloid nucleation score is -0.605 ± 1.1.

For CMYTEACNWWGKYNCVGRQL, which amyloid nucleation score is on record?
The amyloid nucleation score was 0.235 ± 0.32.

With CNCAGDLYAVRLYDGGCSSL as the substance, how does the amyloid nucleation score read?
The amyloid nucleation score was -0.006 ± 0.46.

For CNCVWRCWV, which amyloid nucleation score is on record?
Its amyloid nucleation score is 1.14 ± 0.78.

For CNELI, which amyloid nucleation score is on record?
Its amyloid nucleation score is “inactive”.

With CNKWRYSFVCIPGISRQ as the substance, how does the amyloid nucleation score read?
Its amyloid nucleation score is 2.22 ± 0.091.

Which amyloid nucleation score does the source give for CNYTSPPLSVKDRASLCHTN here?
Its amyloid nucleation score is -0.301 ± 0.93.

Which amyloid nucleation score does the source give for CPLTGDRTAVRHMRKSAFAE here?
The amyloid nucleation score was -0.525 ± 0.4.

For CPRVKAHVRKNVFFSLVMSL, which amyloid nucleation score is on record?
Its amyloid nucleation score is 0.296 ± 0.44.

With CPRYLATNIFHAGECVNHSR as the substance, how does the amyloid nucleation score read?
Its amyloid nucleation score is -1.08 ± 2.7.

For CPVNDMGVWGKMACWNNRV, which amyloid nucleation score is on record?
Its amyloid nucleation score is -0.691 ± 0.54.

Which amyloid nucleation score does the source give for CQEKRSFPVNMNRDIPCLSS here?
Its amyloid nucleation score is 0.193 ± 1.5.

With CQIFELLSNVRVTLLIYNSG as the substance, how does the amyloid nucleation score read?
The amyloid nucleation score was 1.41 ± 0.19.

For CQLSNTSIACSLYNLHCRSW, which amyloid nucleation score is on record?
Its amyloid nucleation score is 4.42 ± 0.13.

With CQSGMSDDEGGQGRFVKCMG as the substance, how does the amyloid nucleation score read?
Its amyloid nucleation score is 0.114 ± 0.51.

Which amyloid nucleation score does the source give for CRATTP here?
Its amyloid nucleation score is 0.282 ± 0.49.

For CRCFGRFLVITSI, which amyloid nucleation score is on record?
Its amyloid nucleation score is “inactive”.

With CRCYNWFRWSLMS as the substance, how does the amyloid nucleation score read?
Its amyloid nucleation score is -0.07 ± 0.26.

For CRDVY, which amyloid nucleation score is on record?
Its amyloid nucleation score is 1.92 ± 0.51.

With CRIQFSSVRMDDSCAQGRKD as the substance, how does the amyloid nucleation score read?
The amyloid nucleation score was 0.504 ± 0.67.

Which amyloid nucleation score does the source give for CRLHVNGLVIVCASWKCGA here?
Its amyloid nucleation score is 3.76 ± 0.1.

For CRPVGSTVVSVDNGTS, which amyloid nucleation score is on record?
The amyloid nucleation score was -0.188 ± 0.37.

Which amyloid nucleation score does the source give for CRQVFLFLVVPKYYNRMLST here?
The amyloid nucleation score was -0.251 ± 0.31.

Which amyloid nucleation score does the source give for CRRNGGTLMAGE here?
Its amyloid nucleation score is 1.21 ± 0.76.

Which amyloid nucleation score does the source give for CRRPEWCEWQGLQTEE here?
The amyloid nucleation score was 0.266 ± 0.83.

With CRSGYRFLRRRAGLTVMR as the substance, how does the amyloid nucleation score read?
Its amyloid nucleation score is -0.413 ± 1.5.

For CRSSVLRSVCINNLSKCSLV, which amyloid nucleation score is on record?
The amyloid nucleation score was “inactive”.

Which amyloid nucleation score does the source give for CRTCRNQRMKDKSELSWLMS here?
Its amyloid nucleation score is -0.589 ± 0.6.

With CRTTHQALRWIHMDYYYSWV as the substance, how does the amyloid nucleation score read?
Its amyloid nucleation score is -0.327 ± 0.31.

For CRVPIRCRGDLLSLRAVRFR, which amyloid nucleation score is on record?
Its amyloid nucleation score is 1.88 ± 0.14.

Which amyloid nucleation score does the source give for CSDSNIPLHNHSWGTSVVDN here?
The amyloid nucleation score was 1.31 ± 0.63.

For CSENT, which amyloid nucleation score is on record?
Its amyloid nucleation score is -0.875 ± 0.52.

Which amyloid nucleation score does the source give for CSFYHVFRCSVGFDVFFSTD here?
The amyloid nucleation score was -0.259 ± 0.41.
